The values below come from US20200291096A1, “BICYCLIC PEPTIDE LIGAND STING CONJUGATES AND USES THEREOF” (priority 2017, published 2020).

One data set is described as follows: Plasma stability (cyno). The class given is in vitro ADME. To be noted: cynomolgus monkey, pH 7.4, 37° C., read-out: T1/2 (cyno).
A short description of data set [1]: in vitro. Conditions: human, plasma, pH 7.4.
Method: (§1) The pooled frozen mouse, rat, monkey or human plasma is thawed in a water bath at 37° C. prior to experiment. Plasma is centrifuged at 4000 rpm for 5 min and the clots are removed if any. The pH is adjusted to 7.4±0.1 if required. 5 mM intermediate solutions of test compounds are prepared with DMSO. 1 mM intermediate solution of positive control Propantheline is prepared by diluting 5 μL of the stock solution with 45 μL ultra pure water. 1 mM intermediate solution of positive control Enalaprit is prepared by diluting 5 μL of the stock solution with 45 μL DMSO. 100 μM dosing solution is prepared by diluting 20 μL of the intermediate solution (1 mM) with 180 μL DMSO. For positive controls, 100 μM intermediate solution is prepared by diluting 20 μL of the stock solution with 180 μL 45% MeOH/H2O. […] 196 μL of blank plasma is spiked with 4 μL of dosing solution (100 μM) to achieve 2 μM of the final concentration in duplicate and samples are incubated at 37° C. in a water bath. At each time point (0, 1, 2, 4, 6 and 24 hr), 800 μL of stop solution (200 ng/mL tolbutamide, 200 ng/ML Labetalol in 50% MeOH/ACN) was added to precipitate protein and mixed thoroughly. Sample plates are centrifuged at 4,000 rpm for 10 min. An aliquot of supernatant (150 μL) is transferred from each well before submitting to LC-MS/MS analysis.
(§2) The percentage of test compound remaining at the individual time points relative to the 0 hour sample is calculated using following equation: Percent Remaining=100×(PAR at appointed incubation time/PAR at To time) where PAR is the peak area ratio of analyte versus internal standard (IS).
The nature of data set [2]: in vitro. To be noted: rat, plasma, pH 7.4.
Method: as §1, §2
Data set [3] can be described thus: in vitro. To be noted: mouse, plasma, pH 7.4.
Method: as §1, §2
Data set [4] in a line: in vitro. Conditions: male, CD-1, mouse, whole blood.
Method: CD-1 mouse blood (n >2,male, fasted overnight) is collected from animals housed at an internal facility. (EDTA-K2 is used as anticoagulant)
The test compounds and positive control stock solutions are prepared to 10 mM in DMSO or ultrapure water. […] The dosing solutions of test compounds and controls are prepared by diluting the stock solution with 45% MeOH/H2O to achieve 100 uM. Test compound solutions (final incubation concentration=2 μM) are incubated with blood (final DMSO concentration≤1%) at six different time points (0, 1, 2, 4, 6 and 24 hours) in duplicate (n=2). The reaction is terminated by adding 100 uL ultra-pure water, mixing well, then adding 800 uL of 100% methanol containing 200 ng/mL tolbutamide and 200 ng/mL labetalol as internal standards. Samples are then vortexed and centrifuged at 3200×g for 20 minutes. Following centrifugation, the concentration of test compound in the supernatant is determined semi-quantitatively by LC-MS/MS. The percentage of test compound remaining at the individual time points relative to the 0 hour sample is then reported. The percent remaining of test compound after incubation in blood is calculated using following equation: Percent Remaining=100×(PAR at appointed incubation time/PAR at To time) where PAR is the peak area ratio of analyte versus internal standard (IS).
For data set [5] the following is noted: 3 mg/kg IV, male CD-1 mice, plasma (FIG. 1).
Method: Male CD-1 mice were dosed with 3 mg/kg of Bicycle Conjugate formulated in 25 mM Histidine HCl, 10% sucrose pH 7 via tail vein injection. Serial bleeding (about 80 μL blood/time point) was performed via submadibular or saphenous vein at each time point. All blood samples were immediately transferred into prechilled microcentrifuge tubes containing 2 μL K2-EDTA (0.5M) as anti-coagulant and placed on wet ice. Blood samples were immediately processed for plasma by centrifugation at approximately +4° C., 3000 g. The precipitant including internal standard (350 uL) was immediately added into the 35 uL plasma sample, mixed well and centrifuged at 3220 g, +4° C. for 15 minutes. The supernatant was transferred into pre-labelled polypropylene microcentrifuge tubes, and then quick-frozen over dry ice. The samples were stored at −70° C. or below as needed until analysis. Supernatant samples were mixed with 50 uL water, vortexed well and centrifuged at 3220 g, +4° C. for 15 minutes. A sample of the supernatant was injected for LC-MS/MS analysis using an Acquity UPLC with AB Sciex 6500+Triple Quad MS in positive ion mode to determine the concentrations of Bicycle conjugate and released payload. Plasma concentration versus time data were analyzed by non-compartmental approaches using the Phoenix WinNonlin 6.3 software program. […]

Starred links: 1 amine or outer side, 2 acyl side, 3 side chain; linkers in the order of their positions; H or OH if unused. Positions of bridges follow the written chain, without caps; N, C: chain ends. Non-standard residues stand in square brackets, D forms with d. Residues, ends and D or L forms follow the SMILES beside them. *: point of attachment. X1 = CC(C)[C@H](NC(=O)Cn1cc(CCC(=O)*)nn1)C(=O)N[C@@H](CCCNC(N)=O)C(=O)Nc1ccc(COC(=O)N(C)CCN(C)C(=O)O[C@@H]2[C@@H]3OP(=O)(O)OC[C@H]4O[C@@H](n5cnc6c(N)ncnc65)[C@H](O)[C@@H]4OP(=O)(O)OC[C@H]3O[C@H]2n2cnc3c(=O)[nH]c(N)nc32)cc1; X4 = CC(C)[C@H](NC(=O)Cn1cc(CCC(=O)*)nn1)C(=O)N[C@@H](CCCNC(N)=O)C(=O)Nc1ccc(COC(=O)NCCNC(=O)O[C@@H]2[C@@H]3OP(=O)(O)OC[C@H]4O[C@@H](n5cnc6c(N)ncnc65)[C@H](O)[C@@H]4OP(=O)(O)OC[C@H]3O[C@H]2n2cnc3c(=O)[nH]c(N)nc32)cc1; X5 = Nc1nc2c(ncn2[C@@H]2O[C@@H]3COP(=O)(O)O[C@H]4[C@@H](O)[C@H](n5cnc6c(N)ncnc65)O[C@@H]4COP(=O)(O)O[C@H]3[C@H]2OC(=O)NCCSSCCCC(=O)*)c(=O)[nH]1; X2 = Nc1nc2c(ncn2[C@@H]2O[C@@H]3COP(=O)(O)O[C@H]4[C@@H](O)[C@H](n5cnc6c(N)ncnc65)O[C@@H]4COP(=O)(O)O[C@H]3[C@H]2OC(=O)*)c(=O)[nH]1; X6 = Nc1ncnc2c1ncn2[C@@H]1O[C@@H]2COP(=O)(S)O[C@H]3[C@@H](OC(=O)*)[C@H](n4cnc5c(N)ncnc54)O[C@@H]3COP(=O)(S)O[C@H]2[C@H]1F; 1Nal = N[C@@H](Cc1cccc2ccccc12)C(=O)O; TBMB = c1c(C[*:1])cc(C[*:3])cc1C[*:2]; X3 = O=C(CCc1cn(CCCN[*:1])nn1)[*:2]; Tle = CC(C)(C)[C@H](N)C(=O)O; βAla = NCCC(=O)O; Sar = CNCC(=O)O Where only a bound is given, the exact number is not on record here.

Method for Plasma stability (cyno): as §1, §2

Consider `C[C@H](NC(=O)CN(C)C(=O)CN(C)C(=O)CN(C)C(=O)CN(C)C(=O)CN(C)C(=O)CN(C)C(=O)CN(C)C(=O)CN(C)C(=O)CN(C)C(=O)CN(C)C(=O)CCNC(=O)CCc1cn(CCCNC(=O)O[C@@H]2[C@@H]3OP(=O)(S)OC[C@H]4O[C@@H](n5cnc6c(N)ncnc65)[C@H](F)[C@@H]4OP(=O)(S)OC[C@H]3O[C@H]2n2cnc3c(N)ncnc32)nn1)C(=O)N[C@H]1CSCc2cc3cc(c2)CSC[C@H](NC(=O)[C@@H](C)NC(=O)[C@H](Cc2cccc4ccccc24)NC(=O)[C@H](CCC(=O)O)NC(=O)[C@H](CC(N)=O)NC(=O)[C@@H](C)NC1=O)C(=O)N[C@@H](CCC(=O)O)C(=O)N[C@@H](CC(=O)O)C(=O)N[C@@H](Cc1ccccc1)C(=O)N[C@@H](Cc1ccc(O)cc1)C(=O)N[C@@H](CC(=O)O)C(=O)N[C@@H](C(C)(C)C)C(=O)N[C@H](C(N)=O)CSC3` (stereo partly shown) [Conjugate 1 of Example 7.4] (X6-[X3][βAla][Sar][Sar][Sar][Sar][Sar][Sar][Sar][Sar][Sar][Sar]AC[dA]NE[1Nal][dA]CEDFYD[Tle]C-NH2; linker 14-20-27 via TBMB), for which the half-life at 2 μM in the data set “Plasma stability (cyno)” was > 24 h; in “in vitro [1]”, > 24 h; in the data set “in vitro [2]”, > 24 h; in “in vitro [3]” it was 6 to 24 h.
Turning to `C[C@H](NC(=O)CN(C)C(=O)CN(C)C(=O)CN(C)C(=O)CN(C)C(=O)CN(C)C(=O)CN(C)C(=O)CN(C)C(=O)CN(C)C(=O)CN(C)C(=O)CN(C)C(=O)CCNC(=O)CCCSSCCNC(=O)O[C@@H]1[C@@H]2OP(=O)(O)OC[C@H]3O[C@@H](n4cnc5c(N)ncnc54)[C@H](O)[C@@H]3OP(=O)(O)OC[C@H]2O[C@H]1n1cnc2c(=O)[nH]c(N)nc21)C(=O)N[C@H]1CSCc2cc3cc(c2)CSC[C@H](NC(=O)[C@@H](C)NC(=O)[C@H](Cc2cccc4ccccc24)NC(=O)[C@H](CCC(=O)O)NC(=O)[C@H](CC(N)=O)NC(=O)[C@@H](C)NC1=O)C(=O)N[C@@H](CCC(=O)O)C(=O)N[C@@H](CC(=O)O)C(=O)N[C@@H](Cc1ccccc1)C(=O)N[C@@H](Cc1ccc(O)cc1)C(=O)N[C@@H](CC(=O)O)C(=O)N[C@@H](C(C)(C)C)C(=O)N[C@H](C(N)=O)CSC3` [I-64] ({X5-βAla}-[Sar][Sar][Sar][Sar][Sar][Sar][Sar][Sar][Sar][Sar]AC[dA]NE[1Nal][dA]CEDFYD[Tle]C-NH2; linker 12-18-25 via TBMB), the half-life at 2 μM in “Plasma stability (cyno)”, in “in vitro [1]”, in “in vitro [2]” and in the data set “in vitro [3]” was < 2 h in each case.
As to `CC(C)[C@H](NC(=O)Cn1cc(CCC(=O)NCCC(=O)N(C)CC(=O)N(C)CC(=O)N(C)CC(=O)N(C)CC(=O)N(C)CC(=O)N(C)CC(=O)N(C)CC(=O)N(C)CC(=O)N(C)CC(=O)N(C)CC(=O)N[C@@H](C)C(=O)N[C@H]2CSCc3cc4cc(c3)CSC[C@H](NC(=O)[C@@H](C)NC(=O)[C@H](Cc3cccc5ccccc35)NC(=O)[C@H](CCC(=O)O)NC(=O)[C@H](CC(N)=O)NC(=O)[C@@H](C)NC2=O)C(=O)N[C@@H](CCC(=O)O)C(=O)N[C@@H](CC(=O)O)C(=O)N[C@@H](Cc2ccccc2)C(=O)N[C@@H](Cc2ccc(O)cc2)C(=O)N[C@@H](CC(=O)O)C(=O)N[C@@H](C(C)(C)C)C(=O)N[C@H](C(N)=O)CSC4)nn1)C(=O)N[C@@H](CCCNC(N)=O)C(=O)Nc1ccc(COC(=O)NCCNC(=O)O[C@@H]2[C@@H]3OP(=O)(O)OC[C@H]4O[C@@H](n5cnc6c(N)ncnc65)[C@H](O)[C@@H]4OP(=O)(O)OC[C@H]3O[C@H]2n2cnc3c(=O)[nH]c(N)nc32)cc1` [I-65] ({X4-βAla}-[Sar][Sar][Sar][Sar][Sar][Sar][Sar][Sar][Sar][Sar]AC[dA]NE[1Nal][dA]CEDFYD[Tle]C-NH2; linker 12-18-25 via TBMB), the half-life at 2 μM in “Plasma stability (cyno)” is > 24 h; in the data set “in vitro [1]” it was > 24 h; in “in vitro [2]”, > 24 h; in “in vitro [3]” it was 6 to 24 h.
For the compound `C[C@H](NC(=O)CN(C)C(=O)CN(C)C(=O)CN(C)C(=O)CN(C)C(=O)CN(C)C(=O)CN(C)C(=O)CN(C)C(=O)CN(C)C(=O)CN(C)C(=O)CN(C)C(=O)CCNC(=O)CCc1cn(CCCNC(=O)O[C@@H]2[C@@H]3OP(=O)(O)OC[C@H]4O[C@@H](n5cnc6c(N)ncnc65)[C@H](O)[C@@H]4OP(=O)(O)OC[C@H]3O[C@H]2n2cnc3c(=O)[nH]c(N)nc32)nn1)C(=O)N[C@H]1CSCc2cc3cc(c2)CSC[C@H](NC(=O)[C@@H](C)NC(=O)[C@H](Cc2cccc4ccccc24)NC(=O)[C@H](CCC(=O)O)NC(=O)[C@H](CC(N)=O)NC(=O)[C@@H](C)NC1=O)C(=O)N[C@@H](CCC(=O)O)C(=O)N[C@@H](CC(=O)O)C(=O)N[C@@H](Cc1ccccc1)C(=O)N[C@@H](Cc1ccc(O)cc1)C(=O)N[C@@H](CC(=O)O)C(=O)N[C@@H](C(C)(C)C)C(=O)N[C@H](C(N)=O)CSC3` [I-66] (X2-[X3][βAla][Sar][Sar][Sar][Sar][Sar][Sar][Sar][Sar][Sar][Sar]AC[dA]NE[1Nal][dA]CEDFYD[Tle]C-NH2; linker 14-20-27 via TBMB), the “stability in mouse blood” value is on record as “dramatic stability”. Moreover, the half-life at 2 μM in “Plasma stability (cyno)” is > 24 h. Also, the half-life at 2 μM in “in vitro [1]” is > 24 h. For the same compound, in the data set “in vitro [2]”, the half-life at 2 μM is > 24 h. Further, in “in vitro [3]”, the half-life at 2 μM was > 24 h. The compound further registered a half-life at 2 μM in the data set “in vitro [4]” of 6 to 24 h.
As to `CC(C)[C@H](NC(=O)Cn1cc(CCC(=O)NCCC(=O)N(C)CC(=O)N(C)CC(=O)N(C)CC(=O)N(C)CC(=O)N(C)CC(=O)N(C)CC(=O)N(C)CC(=O)N(C)CC(=O)N(C)CC(=O)N(C)CC(=O)N[C@@H](C)C(=O)N[C@H]2CSCc3cc4cc(c3)CSC[C@H](NC(=O)[C@@H](C)NC(=O)[C@H](Cc3cccc5ccccc35)NC(=O)[C@H](CCC(=O)O)NC(=O)[C@H](CC(N)=O)NC(=O)[C@@H](C)NC2=O)C(=O)N[C@@H](CCC(=O)O)C(=O)N[C@@H](CC(=O)O)C(=O)N[C@@H](Cc2ccccc2)C(=O)N[C@@H](Cc2ccc(O)cc2)C(=O)N[C@@H](CC(=O)O)C(=O)N[C@@H](C(C)(C)C)C(=O)N[C@H](C(N)=O)CSC4)nn1)C(=O)N[C@@H](CCCNC(N)=O)C(=O)Nc1ccc(COC(=O)N(C)CCN(C)C(=O)O[C@@H]2[C@@H]3OP(=O)(O)OC[C@H]4O[C@@H](n5cnc6c(N)ncnc65)[C@H](O)[C@@H]4OP(=O)(O)OC[C@H]3O[C@H]2n2cnc3c(=O)[nH]c(N)nc32)cc1` [I-68] ({X1-βAla}-[Sar][Sar][Sar][Sar][Sar][Sar][Sar][Sar][Sar][Sar]AC[dA]NE[1Nal][dA]CEDFYD[Tle]C-NH2; linker 12-18-25 via TBMB), the “stability in mouse blood” value is “dramatic stability”. Also, the half-life at 2 μM in “Plasma stability (cyno)” is > 24 h. In addition, the systemic elimination entry in data set [5] is “rapid systemic elimination”. Further, the half-life at 2 μM in “in vitro [1]” is > 24 h. Moreover, the half-life at 2 μM in “in vitro [2]” is > 24 h. In addition, in “in vitro [3]”, the half-life at 2 μM lay within 6 to 24 h. This compound yielded a half-life at 2 μM in the data set “in vitro [4]” of 2 to 6 h.
